Laboratory results from patent US20030088884A1.

B1: porcine relaxin, P01348 161-182; P01348 25-56 (ligand)
chain 1: RMTLSEKCCQVGCIRKDIARLC
chain 2: QSTNDFIKACGRELVRLWVEICGSVSWGRTAL

What was measured:
[1] = target: human LGR8, recombinant, expressed in 293T cells (human) (UniProt Q8WXD0); test: competition with 5 nM biotinylated ovine INSL3 for 293T cells expressing LGR8, 4 C 24 h, 125I-streptavidin detection
[2] = target: human LGR7, long form (LGR7(1), 757 amino acids), recombinant, expressed in 293T cells (human), Q9HBX9; test: cell-based or functional assay
Chain of human LGR7, long form (LGR7(1), 757 amino acids), recombinant, expressed in 293T cells (human), Q9HBX9 (Q9HBX9 whole entry): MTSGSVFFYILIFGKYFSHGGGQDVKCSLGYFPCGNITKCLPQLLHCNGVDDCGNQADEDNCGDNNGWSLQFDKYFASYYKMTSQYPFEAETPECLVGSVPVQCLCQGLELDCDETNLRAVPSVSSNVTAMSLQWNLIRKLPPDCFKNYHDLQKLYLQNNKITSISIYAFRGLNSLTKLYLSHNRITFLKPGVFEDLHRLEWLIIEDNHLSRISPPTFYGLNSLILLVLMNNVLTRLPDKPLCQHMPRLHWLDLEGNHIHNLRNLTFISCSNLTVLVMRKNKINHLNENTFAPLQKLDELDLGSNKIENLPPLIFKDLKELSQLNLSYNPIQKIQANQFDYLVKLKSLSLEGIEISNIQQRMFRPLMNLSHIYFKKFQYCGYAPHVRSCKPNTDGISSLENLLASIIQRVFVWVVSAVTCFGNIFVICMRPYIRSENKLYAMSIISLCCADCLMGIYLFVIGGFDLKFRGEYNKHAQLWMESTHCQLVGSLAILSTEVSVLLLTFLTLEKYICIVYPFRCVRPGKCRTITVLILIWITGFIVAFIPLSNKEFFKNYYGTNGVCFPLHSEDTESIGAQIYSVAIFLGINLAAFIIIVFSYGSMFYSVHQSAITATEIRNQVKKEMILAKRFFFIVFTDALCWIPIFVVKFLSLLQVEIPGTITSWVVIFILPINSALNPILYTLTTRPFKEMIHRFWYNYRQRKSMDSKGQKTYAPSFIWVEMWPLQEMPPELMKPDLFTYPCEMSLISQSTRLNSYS

Chain of UniProt Q8WXD0 (Q8WXD0 whole entry): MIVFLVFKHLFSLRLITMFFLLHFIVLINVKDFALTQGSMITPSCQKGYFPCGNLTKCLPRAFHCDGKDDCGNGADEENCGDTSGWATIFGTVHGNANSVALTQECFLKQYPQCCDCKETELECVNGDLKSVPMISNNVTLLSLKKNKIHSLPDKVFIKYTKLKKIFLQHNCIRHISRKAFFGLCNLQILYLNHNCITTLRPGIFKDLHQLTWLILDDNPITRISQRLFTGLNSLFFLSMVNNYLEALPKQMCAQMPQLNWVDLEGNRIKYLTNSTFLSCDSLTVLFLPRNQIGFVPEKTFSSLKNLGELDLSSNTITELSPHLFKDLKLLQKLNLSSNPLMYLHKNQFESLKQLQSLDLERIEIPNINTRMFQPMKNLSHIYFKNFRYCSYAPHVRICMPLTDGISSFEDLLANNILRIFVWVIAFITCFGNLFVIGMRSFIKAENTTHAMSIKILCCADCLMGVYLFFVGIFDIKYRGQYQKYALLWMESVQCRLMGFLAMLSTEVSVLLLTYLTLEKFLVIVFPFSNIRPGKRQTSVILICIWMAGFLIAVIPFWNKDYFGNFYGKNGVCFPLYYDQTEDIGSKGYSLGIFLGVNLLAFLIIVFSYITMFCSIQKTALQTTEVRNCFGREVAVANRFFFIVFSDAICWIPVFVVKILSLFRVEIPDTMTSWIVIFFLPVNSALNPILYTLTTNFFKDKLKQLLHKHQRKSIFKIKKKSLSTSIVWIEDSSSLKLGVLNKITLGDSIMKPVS

| ED50 [1] | cAMP production by 293T cells expressing human LGR7 [2] | Molecule |
| --- | --- | --- |
| 12 nM |  | rat INSL3, chemically synthesized (from UniProt Q9WUK0 103-128; Q9WUK0 103-128) (ligand) |
|  | 0.1 nM | B1 |
